Data as given in the supplement of paper PMC10201428.
± gives the standard deviation of the averaged measurements.

B1: library; a variant is named by its letters at N, in order (parent)
chain: ACATTTGTTGATACAACCATAAAATGATAATTACACCCATAAATTGATAATTATCACACCCANNNNNNNNNNNNNNCTCTGATCATAGTCAGACCAACATTGCTACGACCCGTATTCGCACCGACAC

Assays:
[1] = variants of: B1; assay: relative integration efficiency (T-RL orientation) vs wild-type transposon end (log2 (normalized fold change)); transposon end mutated: right end (5 bp flank + 75 bp right end); higher = more efficient transposition; conditions: with VchCAST RNA-guided transposition machinery (E. coli BL21(DE3) host, lacZ target)
Summary of the method: (§1)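 Relative integration efficiency is a fold change of output over input barcode abundance, normalised to reference barcodes and log-transformed. Input plasmids and genomic integration junctions were PCR-amplified and Illumina-sequenced from E. coli BL21(DE3) co-transformed with a T7-driven effector plasmid and pUC57 donor pools of 1549 left-end or 1849 right-end transposon variants. Plating was done with 0.1 mM IPTG at 37°C for 18 h, with two biological output replicates and four reference barcodes.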

[2] = variants of: B1; assay: relative integration efficiency (T-LR orientation) vs wild-type transposon end (log2 (normalized fold change)); transposon end mutated: right end (5 bp flank + 75 bp right end); higher = more efficient transposition; conditions: with VchCAST RNA-guided transposition machinery (E. coli BL21(DE3) host, lacZ target)
Summary of the method: as §1

Variant | relative integration efficiency (log2) [1] | relative integration efficiency (log2) [2]
TAAATTGTTATTGC | -0.347 ± 0.057 | 1.61 ± 0.16
TAAATTTATATTGC | -0.361 ± 0.18 | 1.7 ± 0.14
TAAATTTCGCTTGC | -0.702 ± 0.069 | 2.429 ± 0.022
TAAATTTCTATTGC | -0.55 ± 0.13 | 2.4 ± 0.28
TAACGGTATATTGC | -0.559 ± 0.17 | 2.2 ± 0.3
TAACGTGATATTGC | -0.0871 ± 0.004 | 0.67 ± 0.2
TAACTTGATATTGC | 0.11 ± 0.027 | 0.325 ± 0.16
TAAGTTGATATTGC | -0.0544 ± 0.061 | 0.2 ± 0.074
TAAGTTGATATTTT C59A | 0.0617 ± 0.048 | -0.156 ± 0.28
TAATAACATATTGC | -0.969 ± 0.16 | 2.203 ± 0.0027
TAATATGATATTGC | -0.0671 ± 0.049 | 0.438 ± 0.31
TAATTTGATATTGC | 0.169 ± 0.039 | 0.241 ± 0.14
TACATTGATATTGC | -0.674 ± 0.11 | 1.79 ± 0.13
TACCGGGATATTGC | -0.561 ± 0.028 | 2.282 ± 0.0082
TACCTTGAAATTGC C59A | -1.62 ± 0.24 | 1.94 ± 0.21
TACCTTGATATTGC | 1.35 ± 0.074 | 3.9016 ± 0.0014
TAGATTGATATTGC | -0.557 ± 0.12 | 1.925 ± 0.0098
TATATTGATATCTC C59A | -0.231 ± 0.072 | -0.123 ± 0.17
TATATTGATATTGC | 0.155 ± 0.039 | 0.337 ± 0.47
TATTAAGATATTGC | -0.535 ± 0.084 | 1.66 ± 0.11
TATTTTGATATTGC | -0.123 ± 0.052 | 0.19 ± 0.27
GCAATTGATATTGC | -0.508 ± 0.047 | 2.25 ± 0.12
TCAATTGATATTGC | 0.124 ± 0.1 | 2.16 ± 0.12
TCCATTGATATTGC | -0.657 ± 0.14 | 2.16 ± 0.029

Variant | relative integration efficiency (log2) [1] | relative integration efficiency (log2) [2]
GCCATTGATATTGC A62C | -0.86 ± 0.27 | 2.47 ± 0.15
TCCCGTGATATTGC | -0.648 ± 0.091 | 2.35 ± 0.13
GCCCTTGATATTGC | -0.468 ± 0.1 | 2.5 ± 0.11
TGAATTGATATTGC | -0.596 ± 0.095 | 1.91 ± 0.29
ATAATTGATATTGC | -0.135 ± 0.017 | 1.11 ± 0.1
TTAATTGATATTGC | -0.072 ± 0.011 | 0.636 ± 0.14
TTTATTGATATTGC | 0.0323 ± 0.048 | 0.91 ± 0.071
ATTATTGATATTGC A62T | -0.325 ± 0.075 | 1.957 ± 0.011
ATTTAACTATAACG | -0.618 ± 0.17 | 2.52 ± 0.22
ATTTAACTATAACG A11C | -0.753 ± 0.07 | 1.51 ± 0.15
ATTTAACTATAACG A11G | -0.569 ± 0.088 | 1.83 ± 0.095
ATTTAACTATAACG A11T | -0.284 ± 0.19 | 2.19 ± 0.049
ATTTAACTATAACG A13C | -0.7 ± 0.17 | 2.25 ± 0.23
ATTTAACTATAACG A13T | -1.09 ± 0.14 | 1.84 ± 0.15
ATTTAACTATAACG A15C | -0.749 ± 0.29 | 2.73 ± 0.074
ATTTAACTATAACG A15T | -1.1 ± 0.15 | 1.8 ± 0.077
ATTTAACTATAACG A16C | -1.24 ± 0.14 | 2 ± 0.11
ATTTAACTATAACG A16G | -1.04 ± 0.027 | 2.09 ± 0.17
ATTTAACTATAACG A16T | -0.779 ± 0.2 | 2.59 ± 0.066
ATTTAACTATAACG A19C | -1.84 ± 0.3 | 1.06 ± 0.42
ATTTAACTATAACG A19G | -0.904 ± 0.018 | 2.08 ± 0.037
ATTTAACTATAACG A19T | -1.53 ± 0.24 | 2.1 ± 0.09
ATTTAACTATAACG A21C | -1.05 ± 0.21 | 1.892 ± 0.013
ATTTAACTATAACG A21T | -0.978 ± 0.093 | 2 ± 0.062

Variant | relative integration efficiency (log2) [1] | relative integration efficiency (log2) [2]
ATTTAACTATAACG A22C | -1.71 ± 0.34 | 1.21 ± 0.057
ATTTAACTATAACG A22G | -1.42 ± 0.27 | 1.36 ± 0.45
ATTTAACTATAACG A22T | -0.696 ± 0.12 | 2.5 ± 0.18
ATTTAACTATAACG A23C | -1.16 ± 0.088 | 1.98 ± 0.17
ATTTAACTATAACG A23G | -0.928 ± 0.18 | 2.07 ± 0.26
ATTTAACTATAACG A23T | -0.809 ± 0.12 | 1.952 ± 0.015
ATTTAACTATAACG A24C | -0.878 ± 0.18 | 2.28 ± 0.015
ATTTAACTATAACG A24G | -0.674 ± 0.13 | 2.25 ± 0.086
ATTTAACTATAACG A24T | -0.752 ± 0.19 | 2.39 ± 0.024
ATTTAACTATAACG A27C | -1.49 ± 0.28 | 1.82 ± 0.022
ATTTAACTATAACG A27G | -1.43 ± 0.34 | 2.14 ± 0.29
ATTTAACTATAACG A27T | -1.93 ± 0.43 | 1.735 ± 0.0049
ATTTAACTATAACG A29C | -1.83 ± 0.43 | 1.8 ± 0.15
ATTTAACTATAACG A29T | -1.09 ± 0.32 | 2.6 ± 0.24
ATTTAACTATAACG A30C | -1.2 ± 0.42 | 2.682 ± 0.016
ATTTAACTATAACG A30G | -1.51 ± 0.13 | 2.11 ± 0.26
ATTTAACTATAACG A30T | 0.406 ± 0.54 | 4.401 ± 0.043
ATTTAACTATAACG A33C | -1.12 ± 0.26 | 2.34 ± 0.17
ATTTAACTATAACG A33G | -0.971 ± 0.32 | 2.42 ± 0.046
ATTTAACTATAACG A35C | -0.737 ± 0.15 | 2.11 ± 0.15
ATTTAACTATAACG A35T | -1 ± 0.29 | 2.07 ± 0.25
ATTTAACTATAACG A39C | -2.44 ± 0.36 | 0.461 ± 0.1
ATTTAACTATAACG A39G | -0.496 ± 0.057 | 2.47 ± 0.042
ATTTAACTATAACG A39T | -1.34 ± 0.21 | 1.59 ± 0.1

Variant | relative integration efficiency (log2) [1] | relative integration efficiency (log2) [2]
ATTTAACTATAACG A41C | -1.53 ± 0.21 | 1.39 ± 0.29
ATTTAACTATAACG A41T | -0.673 ± 0.15 | 2.347 ± 0.0099
ATTTAACTATAACG A42C | -1.82 ± 0.3 | 1.03 ± 0.13
ATTTAACTATAACG A42G | -1.62 ± 0.22 | 1.19 ± 0.16
ATTTAACTATAACG A42T | -0.805 ± 0.085 | 2.24 ± 0.14
ATTTAACTATAACG A43C | -0.798 ± 0.095 | 2.4 ± 0.038
ATTTAACTATAACG A43G | -0.724 ± 0.15 | 2.29 ± 0.09
ATTTAACTATAACG A43T | -0.99 ± 0.12 | 2.15 ± 0.11
ATTTAACTATAACG A47C | -0.686 ± 0.38 | 2.63 ± 0.064
ATTTAACTATAACG A47G | -0.679 ± 0.11 | 2.25 ± 0.039
ATTTAACTATAACG A47T | -1.17 ± 0.26 | 1.84 ± 0.026
ATTTAACTATAACG A49C | -1.46 ± 0.19 | 2.17 ± 0.094
ATTTAACTATAACG A49T | -1.3 ± 0.35 | 2.31 ± 0.04
ATTTAACTATAACG A50C | -1.36 ± 0.36 | 2.44 ± 0.1
ATTTAACTATAACG A50G | -1.62 ± 0.3 | 2.18 ± 0.28
ATTTAACTATAACG A50T | -1.29 ± 0.33 | 2.34 ± 0.11
ATTTAACTATAACG A53C | -1.32 ± 0.33 | 2.49 ± 0.26
ATTTAACTATAACG A53G | -1.38 ± 0.34 | 2.239 ± 0.0053
ATTTAACTATAACG A56C | -1.09 ± 0.21 | 2.32 ± 0.19
ATTTAACTATAACG A56T | -0.909 ± 0.39 | 2.57 ± 0.2
ATTTAACTATAACG A58C | -0.52 ± 0.37 | 2.86 ± 0.073
ATTTAACTATAACG A58T | -0.708 ± 0.029 | 2.39 ± 0.19
ATTTAACTATAACG A62C | -1.03 ± 0.27 | 2.22 ± 0.21
ATTTAACTATAACG C14G | -0.937 ± 0.17 | 1.76 ± 0.15

Variant | relative integration efficiency (log2) [1] | relative integration efficiency (log2) [2]
ATTTAACTATAACG C18A | -0.906 ± 0.082 | 2.01 ± 0.13
ATTTAACTATAACG C18G | -1.04 ± 0.083 | 1.98 ± 0.099
ATTTAACTATAACG C18T | -0.685 ± 0.013 | 2.16 ± 0.14
ATTTAACTATAACG C34A | -1.12 ± 0.27 | 2.11 ± 0.056
ATTTAACTATAACG C34G | -1.76 ± 0.18 | 1.73 ± 0.16
ATTTAACTATAACG C36A | -0.593 ± 0.052 | 2.4 ± 0.13
ATTTAACTATAACG C36G | -1.16 ± 0.22 | 1.95 ± 0.11
ATTTAACTATAACG C38A | -1.04 ± 0.17 | 2.02 ± 0.11
ATTTAACTATAACG C38G | -0.843 ± 0.15 | 2.06 ± 0.035
ATTTAACTATAACG C38T | -0.901 ± 0.15 | 2.05 ± 0.13
ATTTAACTATAACG C55A | -1.63 ± 0.35 | 2.34 ± 0.071
ATTTAACTATAACG C55G | -1.37 ± 0.28 | 2.381 ± 0.011
ATTTAACTATAACG C55T | -1.15 ± 0.35 | 2.56 ± 0.14
ATTTAACTATAACG C57A | -0.68 ± 0.085 | 2.48 ± 0.17
ATTTAACTATAACG C57G | -0.953 ± 0.42 | 2.5 ± 0.16
ATTTAACTATAACG C61A | -0.657 ± 0.15 | 2.0647 ± 0.00092
ATTTAACTATAACG C61G | -0.633 ± 0.14 | 2.57 ± 0.16
ATTTAACTATAACG G7C | -1.39 ± 0.16 | 1.24 ± 0.17
ATTTAACTATAACG G10A | -0.62 ± 0.18 | 1.89 ± 0.087
ATTTAACTATAACG G10C | -1.15 ± 0.31 | 0.7 ± 0.19
